We go through one molecule from publication PMC5779224 (2017).

For one experiment, the target named is T1, AnkB ΔZZUD (human, UniProt Q01484-2 1-1872).
T1 chain: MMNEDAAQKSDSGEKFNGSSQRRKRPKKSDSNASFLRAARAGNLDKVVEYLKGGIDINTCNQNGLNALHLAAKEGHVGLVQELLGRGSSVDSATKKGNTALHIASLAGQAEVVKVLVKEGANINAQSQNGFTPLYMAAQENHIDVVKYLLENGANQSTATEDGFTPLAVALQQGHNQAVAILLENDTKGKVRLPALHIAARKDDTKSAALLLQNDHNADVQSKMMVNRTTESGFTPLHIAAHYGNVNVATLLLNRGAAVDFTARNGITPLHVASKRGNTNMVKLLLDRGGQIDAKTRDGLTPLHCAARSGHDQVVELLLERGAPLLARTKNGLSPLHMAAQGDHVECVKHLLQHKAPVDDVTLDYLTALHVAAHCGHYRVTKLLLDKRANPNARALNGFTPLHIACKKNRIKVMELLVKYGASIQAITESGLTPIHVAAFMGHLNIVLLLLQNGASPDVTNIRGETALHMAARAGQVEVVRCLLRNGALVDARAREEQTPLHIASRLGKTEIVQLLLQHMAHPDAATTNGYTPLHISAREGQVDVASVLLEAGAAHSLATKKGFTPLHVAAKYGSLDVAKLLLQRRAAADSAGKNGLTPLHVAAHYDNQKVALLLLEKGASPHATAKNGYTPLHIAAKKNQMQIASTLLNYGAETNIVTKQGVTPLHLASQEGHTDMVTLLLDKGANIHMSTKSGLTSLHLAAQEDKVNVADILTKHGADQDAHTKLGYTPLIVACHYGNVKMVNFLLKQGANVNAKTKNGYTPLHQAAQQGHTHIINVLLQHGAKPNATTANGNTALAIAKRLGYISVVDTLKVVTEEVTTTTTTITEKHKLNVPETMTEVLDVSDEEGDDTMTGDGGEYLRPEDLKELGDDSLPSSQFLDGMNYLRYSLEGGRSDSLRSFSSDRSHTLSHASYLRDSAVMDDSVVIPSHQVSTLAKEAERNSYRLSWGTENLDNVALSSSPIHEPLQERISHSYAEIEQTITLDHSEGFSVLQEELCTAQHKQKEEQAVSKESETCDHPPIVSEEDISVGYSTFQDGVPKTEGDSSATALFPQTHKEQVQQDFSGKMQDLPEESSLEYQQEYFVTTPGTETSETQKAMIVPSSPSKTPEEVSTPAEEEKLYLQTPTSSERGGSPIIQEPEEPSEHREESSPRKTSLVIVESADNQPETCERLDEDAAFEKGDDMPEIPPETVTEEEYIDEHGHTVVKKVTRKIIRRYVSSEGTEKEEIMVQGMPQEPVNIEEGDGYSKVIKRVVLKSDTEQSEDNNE
The experiment in a line: ITC. Background: ITC needs no label: the signal is the heat of the interaction.

The target of experiment [1] is T2, AnkG 38–855 (AnkG MBD-AI-c protein; MBD + partial AI-c) (rat, UniProt O70511-1 38-855).
T2 chain: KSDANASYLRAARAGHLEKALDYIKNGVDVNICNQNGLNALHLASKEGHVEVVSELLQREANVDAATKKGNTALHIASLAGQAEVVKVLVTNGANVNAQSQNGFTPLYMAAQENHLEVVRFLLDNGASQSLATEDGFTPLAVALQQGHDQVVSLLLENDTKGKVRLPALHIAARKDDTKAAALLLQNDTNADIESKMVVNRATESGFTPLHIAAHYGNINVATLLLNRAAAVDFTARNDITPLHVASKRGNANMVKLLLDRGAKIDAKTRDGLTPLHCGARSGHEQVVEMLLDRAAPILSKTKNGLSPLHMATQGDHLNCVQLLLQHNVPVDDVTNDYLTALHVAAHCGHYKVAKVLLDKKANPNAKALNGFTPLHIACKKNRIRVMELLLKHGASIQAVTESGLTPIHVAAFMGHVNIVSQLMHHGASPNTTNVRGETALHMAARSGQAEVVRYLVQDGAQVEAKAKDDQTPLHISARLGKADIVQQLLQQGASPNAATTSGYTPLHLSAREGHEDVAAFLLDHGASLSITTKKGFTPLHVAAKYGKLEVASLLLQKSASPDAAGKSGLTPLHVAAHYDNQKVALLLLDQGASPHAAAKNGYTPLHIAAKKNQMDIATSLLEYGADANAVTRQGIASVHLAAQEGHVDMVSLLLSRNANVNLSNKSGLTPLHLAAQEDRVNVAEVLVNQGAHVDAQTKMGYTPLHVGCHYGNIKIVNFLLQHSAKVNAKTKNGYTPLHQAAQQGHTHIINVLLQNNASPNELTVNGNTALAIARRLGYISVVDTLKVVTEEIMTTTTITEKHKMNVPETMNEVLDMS
The experiment in a line: ITC; reported in Wang et al 2014.

Experiment [2] addresses T3, AnkG 38–903 (MBD + AI-c + AI-b) (rat, UniProt O70511-1 38-903).
T3 chain: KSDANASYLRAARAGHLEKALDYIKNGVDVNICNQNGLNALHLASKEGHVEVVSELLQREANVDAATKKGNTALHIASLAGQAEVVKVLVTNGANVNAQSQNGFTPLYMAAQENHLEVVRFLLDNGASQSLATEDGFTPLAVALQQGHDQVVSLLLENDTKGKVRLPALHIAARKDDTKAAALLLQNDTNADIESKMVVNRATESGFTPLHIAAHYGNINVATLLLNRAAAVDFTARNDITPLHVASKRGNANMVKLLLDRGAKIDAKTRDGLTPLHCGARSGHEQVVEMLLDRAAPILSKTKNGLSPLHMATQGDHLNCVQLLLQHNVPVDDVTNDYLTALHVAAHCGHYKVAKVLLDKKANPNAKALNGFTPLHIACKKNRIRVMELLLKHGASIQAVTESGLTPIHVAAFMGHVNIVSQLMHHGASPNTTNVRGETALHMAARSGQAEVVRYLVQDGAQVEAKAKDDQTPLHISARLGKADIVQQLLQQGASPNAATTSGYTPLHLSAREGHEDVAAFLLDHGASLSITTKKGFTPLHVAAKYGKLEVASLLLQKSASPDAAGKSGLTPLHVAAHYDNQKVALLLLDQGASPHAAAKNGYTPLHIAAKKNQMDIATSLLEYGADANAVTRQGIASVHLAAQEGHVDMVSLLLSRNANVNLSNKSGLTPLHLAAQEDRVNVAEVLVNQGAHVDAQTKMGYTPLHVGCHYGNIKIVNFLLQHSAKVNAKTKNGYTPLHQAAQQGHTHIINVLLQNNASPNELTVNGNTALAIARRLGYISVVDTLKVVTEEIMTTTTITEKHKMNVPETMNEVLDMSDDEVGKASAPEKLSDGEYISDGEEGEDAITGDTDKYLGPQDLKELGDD
The experiment in a line: ITC.

B1: NF186 (aa 1187–1214) (domain or fragment)
chain: SDDSLVDYGEGGEGQFNEDGSFIGQYTV
What is called Kd is the free concentration of one partner at which half of the binding sites on the other are occupied at equilibrium, for simple one-to-one binding. Take B1: the values for the Kd (in the experiment with AnkB ΔZZUD; in experiment [1]; in experiment [2]) were 14 µM, 0.21 µM and 4.2 µM, respectively.
